Consider 1 molecule from patent US20200172956A1 (NATIONAL UNIVERSITY CORPORATION KUMAMOTO UNIVERSITY, published 2020).

The target of the experiment is T1, type IV collagen α3-SmBiT (fusion protein having SmBiT at the C-terminal of wild-type type IV collagen α3(IV) … (Homo sapiens (Human), UniProt Q01955 43-1670)).
T1 construct: also called α3 chain; COL4A3 in pFC36K SmBiT vector
Briefly: split luciferase (NanoBiT) luminescence in culture supernatant of HEK293T cells co-expressing the domain-deleted α5 fusion with α3 and α4 chains.

T1 sequence (Q01955 other isoform, or with tags, fused parts or gaps): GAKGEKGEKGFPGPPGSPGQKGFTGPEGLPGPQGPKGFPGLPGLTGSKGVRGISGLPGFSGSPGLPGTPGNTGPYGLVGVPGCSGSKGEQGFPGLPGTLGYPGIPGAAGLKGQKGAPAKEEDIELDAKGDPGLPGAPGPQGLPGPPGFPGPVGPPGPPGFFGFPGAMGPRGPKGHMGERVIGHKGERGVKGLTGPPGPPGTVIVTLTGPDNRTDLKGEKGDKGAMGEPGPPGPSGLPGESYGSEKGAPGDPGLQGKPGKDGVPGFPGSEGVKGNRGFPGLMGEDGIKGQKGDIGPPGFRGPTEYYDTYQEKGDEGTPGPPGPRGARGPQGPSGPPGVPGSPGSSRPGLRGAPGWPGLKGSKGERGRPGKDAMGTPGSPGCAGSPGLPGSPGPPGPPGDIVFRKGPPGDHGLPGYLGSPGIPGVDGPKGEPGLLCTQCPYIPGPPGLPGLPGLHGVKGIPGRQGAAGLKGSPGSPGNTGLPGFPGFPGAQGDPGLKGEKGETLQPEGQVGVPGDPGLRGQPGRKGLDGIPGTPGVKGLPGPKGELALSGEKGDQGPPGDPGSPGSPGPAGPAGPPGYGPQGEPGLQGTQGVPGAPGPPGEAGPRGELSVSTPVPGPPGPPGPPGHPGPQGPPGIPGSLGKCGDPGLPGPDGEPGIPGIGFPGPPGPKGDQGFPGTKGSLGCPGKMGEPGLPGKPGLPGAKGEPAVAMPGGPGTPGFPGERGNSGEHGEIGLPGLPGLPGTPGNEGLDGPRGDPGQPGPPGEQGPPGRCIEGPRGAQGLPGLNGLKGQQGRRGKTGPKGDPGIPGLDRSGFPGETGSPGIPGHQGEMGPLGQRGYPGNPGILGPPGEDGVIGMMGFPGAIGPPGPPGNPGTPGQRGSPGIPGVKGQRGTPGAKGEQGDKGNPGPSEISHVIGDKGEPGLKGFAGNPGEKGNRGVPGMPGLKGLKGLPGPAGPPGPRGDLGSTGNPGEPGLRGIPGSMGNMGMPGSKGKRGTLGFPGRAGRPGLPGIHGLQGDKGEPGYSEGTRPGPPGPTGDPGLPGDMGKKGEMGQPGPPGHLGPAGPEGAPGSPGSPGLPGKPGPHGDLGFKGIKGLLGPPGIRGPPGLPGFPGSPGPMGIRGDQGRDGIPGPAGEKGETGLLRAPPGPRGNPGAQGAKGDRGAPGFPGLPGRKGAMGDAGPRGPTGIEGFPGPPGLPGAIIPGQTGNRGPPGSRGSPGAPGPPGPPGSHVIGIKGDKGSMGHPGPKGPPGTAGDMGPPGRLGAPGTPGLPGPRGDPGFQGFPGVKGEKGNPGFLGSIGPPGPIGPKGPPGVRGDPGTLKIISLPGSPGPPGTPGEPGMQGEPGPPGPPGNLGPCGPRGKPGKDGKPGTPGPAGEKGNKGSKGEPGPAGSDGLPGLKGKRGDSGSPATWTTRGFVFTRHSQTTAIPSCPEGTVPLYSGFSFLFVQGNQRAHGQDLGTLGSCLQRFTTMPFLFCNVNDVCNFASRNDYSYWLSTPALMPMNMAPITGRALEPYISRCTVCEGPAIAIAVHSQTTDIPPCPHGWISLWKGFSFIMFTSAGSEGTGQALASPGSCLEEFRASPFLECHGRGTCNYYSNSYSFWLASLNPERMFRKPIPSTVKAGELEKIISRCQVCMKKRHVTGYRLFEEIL

B1: fusion protein having a split luciferase fragment at the C terminal of the NC1 domain of wild-type α5 chain (COL domain-deleted α5 chain) (other)
chain: GFLITRHSQTTDAPQCPQGTLQVYEGFSLLYVQGNKRAHGQDLGTAGSCLRRFSTMPFMFCNINNVCNFASRNDYSYWLSTPEPMPMSMQPLKGQSIQPFISRCAVCEAPAVVIAVHSQTIQIPHCPQGWDSLWIGYSFMMHTSAGAEGSGQALASPGSCLEEFRSAPFIECHGRGTCNYYANSYSFWLATVDVSDMFSKPQSETLKAGDLRTRISRCQVCMKRTMVFTLEDFVGDWEQTAAYNLDQVLEQGGVSSLLQNLAVSVTPIQRIVRSGENALKIDIHVIIPYEGLSADQMAQIEEVFKVVYPVDDHHFKVILPYGTLVIDGVTPNMLNYFGRPYEGIAVFDGKKITVTGTLWNGNKIIDERLITPDGSMLFRVTINS
notes: The residue range is converted from nucleotide numbers; also called 4COL (so in the source); probably ΔCOL
Turning to B1, the binding result is “no binding”.
